The data set in a line: Thermostability assay of ADRA1A derived clones ([3H]prazosin binding after heat challenge). To be noted: PBS-E(DCC), no ligand during solubilization, even at 20° C. The data set is classed as physicochemical. As to the method:
Detergent-stable ADRA1A library members were selected with FACS using 200 nM BODIPY FL prazosin. (FIG. 8a) 21 selected clones were expressed individually, solubilized and assayed for ligand binding activity after 3 hours in PBS-E(DCC). (FIG. 8b) The top 4 receptors were solubilized in PBS-E(DCC) for 3 h at 20° C. in the absence of ligand. Solubilized receptors were captured from the supernatant with streptavidin paramagnetic beads at 4° C. for 1 h. ADRA1ADCCA3 (black circles), ADRA1ADCCG4 (grey open squares), ADRA1ADCCD7 (black crosses) or ADRA1ADCCD8 (grey open circles) coated beads were either treated with 20 nM [^3H]prazosin for 1 h before being thermally challenged for 30 min at increasing temperatures or […] treated with 20 nM [^3H]prazosin after heating in the absence of ligand. […] Parallel measurements were taken for every receptor in the presence of 10 μM unlabeled prazosin as a competitor to determine the specific […] signal. Data points are plotted as the mean of duplicate measurements, 100% represents the signal measured after heating at 20° C. for 30 min. Error bars indicate the standard error of the mean.
For ADRA1A derived clones, expression and sonication was conducted as above, but the pellet was solubilized in PBS-E(DCC) containing 50 mg/ml chicken lysozyme at 20° C. with vigorous shaking for 3 h in the absence of ligand. […]

B1: wild-type ADRA1A: wild-type alpha 1A adrenergic receptor, parental receptor (protein, UniProt P35348 1-466, looked up)
Alpha-1A adrenergic receptor: MVFLSGNASDSSNCTQPPAPVNISKAILLGVILGGLILFGVLGNILVILSVACHRHLHSVTHYYIVNLAVADLLLTSTVLPFSAIFEVLGYWAFGRVFCNIWAAVDVLCCTASIMGLCIISIDRYIGVSYPLRYPTIVTQRRGLMALLCVWALSLVISIGPLFGWRQPAPEDETICQINEEPGYVLFSALGSFYLPLAIILVMYCRVYVVAKRESRGLKSGLKTDKSDSEQVTLRIHRKNAPAGGSGMASAKTKTHFSVRLLKFSREKKAAKTLGIVVGCFVLCWLPFFLVMPIGSFFPDFKPSETVFKIVFWLGYLNSCINPIIYPCSSQEFKKAFQNVLRIQCLCRKQSSKHALGYTLHPPSQAVEGQHKDMVRIPVGSRETFYRISKTDGVCEWKFFSSMPRGSARITVSKDQSSCTTARVRSKSFLQVCCCVGPSTPSLDKNHQVPTIKVHTISLSENGEEV
In the case of B1, the “ligand binding signal when solubilized in the absence of ligand” value is “no significant fluorescence signal was obtained”. Where the note is “listed as ADRA1A”, the “ligand binding signal when solubilized in the absence of ligand” value is on record as “No significant signal could be measured”.

The values are drawn from US11661676B2, “Cellular high throughput encapsulation for screening or selection” (Universität Zürich, priority 2012, dated 2023).
